# Patent US20250019450A1 (DIAGONAL THERAPEUTICS, published 2025)
# T1: human IL-12RB2 with C-terminal HA tag, transiently expressed on HEK-293T cells (human, UniProt Q99665 24-862)
# T1 construct: whole, on cells; also called human IL-12Rβ2
# T1 sequence (looked up): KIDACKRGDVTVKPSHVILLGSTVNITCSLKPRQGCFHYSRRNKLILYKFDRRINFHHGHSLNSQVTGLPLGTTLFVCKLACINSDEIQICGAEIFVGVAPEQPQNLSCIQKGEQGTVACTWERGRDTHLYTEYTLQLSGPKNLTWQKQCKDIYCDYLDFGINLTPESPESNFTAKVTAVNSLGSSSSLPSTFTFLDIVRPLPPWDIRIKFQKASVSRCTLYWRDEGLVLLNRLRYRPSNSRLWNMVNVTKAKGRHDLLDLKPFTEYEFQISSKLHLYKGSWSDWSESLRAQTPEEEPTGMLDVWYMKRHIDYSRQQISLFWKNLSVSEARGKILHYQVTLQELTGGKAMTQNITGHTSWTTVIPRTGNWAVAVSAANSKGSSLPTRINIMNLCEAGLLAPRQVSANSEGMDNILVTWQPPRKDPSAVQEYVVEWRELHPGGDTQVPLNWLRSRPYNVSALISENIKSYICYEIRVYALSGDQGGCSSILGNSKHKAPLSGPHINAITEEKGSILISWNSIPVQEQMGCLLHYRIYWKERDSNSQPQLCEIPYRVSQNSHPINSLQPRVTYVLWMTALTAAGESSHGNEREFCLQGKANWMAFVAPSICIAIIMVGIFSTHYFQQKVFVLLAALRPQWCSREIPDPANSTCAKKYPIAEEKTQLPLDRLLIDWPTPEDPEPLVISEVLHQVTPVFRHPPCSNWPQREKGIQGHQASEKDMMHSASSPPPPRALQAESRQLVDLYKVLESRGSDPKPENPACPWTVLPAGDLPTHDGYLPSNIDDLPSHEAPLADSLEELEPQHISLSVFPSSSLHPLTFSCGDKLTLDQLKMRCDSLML
# T2: human IL-12Rβ2-huFc-his (R&D system), biotinylated (human, UniProt Q99665 24-622, limits assumed, biotinylated)
# T2 construct: bought; captured on Neutravidin in the ELISA; also called Bio-huIL-12Rβ2-huFc-His
# T2 sequence (looked up): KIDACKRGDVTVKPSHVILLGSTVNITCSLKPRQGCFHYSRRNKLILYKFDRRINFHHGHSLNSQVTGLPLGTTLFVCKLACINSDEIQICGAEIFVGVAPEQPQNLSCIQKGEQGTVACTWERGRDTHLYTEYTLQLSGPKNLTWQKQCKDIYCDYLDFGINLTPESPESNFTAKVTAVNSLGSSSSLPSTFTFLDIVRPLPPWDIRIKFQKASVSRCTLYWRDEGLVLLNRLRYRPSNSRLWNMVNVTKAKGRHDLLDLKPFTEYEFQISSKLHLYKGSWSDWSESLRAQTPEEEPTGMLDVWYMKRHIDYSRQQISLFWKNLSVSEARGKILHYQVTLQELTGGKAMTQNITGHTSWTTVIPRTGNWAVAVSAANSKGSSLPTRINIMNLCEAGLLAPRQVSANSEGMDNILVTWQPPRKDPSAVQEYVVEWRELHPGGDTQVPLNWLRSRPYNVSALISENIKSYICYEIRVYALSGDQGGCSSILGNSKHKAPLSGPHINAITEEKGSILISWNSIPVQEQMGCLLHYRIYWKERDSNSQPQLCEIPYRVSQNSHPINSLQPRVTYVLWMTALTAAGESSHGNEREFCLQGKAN
# T3: human IL-12Rβ2, Acro (BLI analyte) (human, UniProt Q99665 24-622, limits assumed)
# T3 sequence (looked up): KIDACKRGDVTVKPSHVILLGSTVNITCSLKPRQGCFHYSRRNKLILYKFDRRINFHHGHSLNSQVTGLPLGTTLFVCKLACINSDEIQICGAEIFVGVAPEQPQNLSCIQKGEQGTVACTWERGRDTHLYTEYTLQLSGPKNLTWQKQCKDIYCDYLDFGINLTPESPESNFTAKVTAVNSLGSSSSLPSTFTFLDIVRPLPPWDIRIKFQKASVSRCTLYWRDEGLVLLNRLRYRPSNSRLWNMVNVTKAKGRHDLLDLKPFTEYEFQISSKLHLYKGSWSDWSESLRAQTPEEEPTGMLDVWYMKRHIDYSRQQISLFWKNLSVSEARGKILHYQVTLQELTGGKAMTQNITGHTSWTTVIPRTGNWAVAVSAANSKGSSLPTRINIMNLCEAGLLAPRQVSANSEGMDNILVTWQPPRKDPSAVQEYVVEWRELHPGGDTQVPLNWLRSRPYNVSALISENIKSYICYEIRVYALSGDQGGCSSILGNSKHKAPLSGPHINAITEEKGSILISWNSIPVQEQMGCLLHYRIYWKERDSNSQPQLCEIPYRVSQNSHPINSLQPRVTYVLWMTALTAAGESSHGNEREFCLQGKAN
# T4: cyno IL-12RB2 with C-terminal HA tag, transiently expressed on HEK-293T cells (cyno, UniProt A0A2K5VNI7 24-860)
# T4 construct: whole, on cells; also called cyno IL-12Rβ2
# T4 sequence: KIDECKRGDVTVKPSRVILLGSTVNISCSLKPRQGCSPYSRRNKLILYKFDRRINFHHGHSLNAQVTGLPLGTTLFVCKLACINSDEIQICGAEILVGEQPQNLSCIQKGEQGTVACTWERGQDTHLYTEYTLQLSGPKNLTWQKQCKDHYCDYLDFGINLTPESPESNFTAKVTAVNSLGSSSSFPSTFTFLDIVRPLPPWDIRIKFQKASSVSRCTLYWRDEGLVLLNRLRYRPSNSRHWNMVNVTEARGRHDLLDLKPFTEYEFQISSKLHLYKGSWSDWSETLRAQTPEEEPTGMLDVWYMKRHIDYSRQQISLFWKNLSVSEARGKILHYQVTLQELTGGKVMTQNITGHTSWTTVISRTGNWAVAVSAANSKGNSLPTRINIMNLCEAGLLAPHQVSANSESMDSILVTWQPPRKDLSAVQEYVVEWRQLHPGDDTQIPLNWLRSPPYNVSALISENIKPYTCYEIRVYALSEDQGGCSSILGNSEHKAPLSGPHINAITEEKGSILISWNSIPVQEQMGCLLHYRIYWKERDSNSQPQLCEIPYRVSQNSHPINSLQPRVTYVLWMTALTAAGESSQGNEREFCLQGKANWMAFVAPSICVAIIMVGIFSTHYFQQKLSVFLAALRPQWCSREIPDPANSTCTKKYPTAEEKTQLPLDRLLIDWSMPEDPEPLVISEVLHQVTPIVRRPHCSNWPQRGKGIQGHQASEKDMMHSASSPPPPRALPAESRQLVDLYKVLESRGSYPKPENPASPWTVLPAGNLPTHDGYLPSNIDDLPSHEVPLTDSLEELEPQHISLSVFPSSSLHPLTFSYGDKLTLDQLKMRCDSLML
# Assays:
# [1] = target: T1, human IL-12RB2 with C-terminal HA tag, …; assay: FACS, periplasmic extract, HEK-293T
# [2] = target: T2, human IL-12Rβ2-huFc-his (R&D system), …; assay: ELISA, periplasmic extract
# [3] = target: human IL-12 receptor (IL-12Rβ1 and IL-12Rβ2) on HEK-Blue IL-12 cells (human, UniProt P42701 24-662; Q99665 24-862); assay: cell-based or functional assay
# [4] = target: human IL-12Rβ1, Acro (BLI analyte) (human, UniProt P42701 24-545); assay: BLI (Octet), antibody on AHC tip
# [5] = target: T3, human IL-12Rβ2, Acro (BLI analyte); assay: BLI (Octet), antibody on AHC tip
# [6] = target: T4, cyno IL-12RB2 with C-terminal HA tag, …; assay: FACS, periplasmic extract, HEK-293T
Binder,FOB [1] [fold],OD450 nm [2],EC50 [3],Max Absorbance [3],Kd [4] [nM],Kd [5] [nM],FOB [6] [fold]
VHH356B2 (VHH) VHH: QLQLVESGGGLVQPGGSLRLSCAASGSIFSINAMGWYRQAPGKQRELVAAITSGGSTAYADSVKGRFTISRDNAKNTVYLQMNSLKPEDTAVYYCNADRDPITSWYVRGDYWGQGTQVTVSS,1.43,2.86,,,,,
"DGL412 (bispecific antibody, human IgG1, kappa, 85801_05G01A x 13B2) heavy 1: not shown heavy 2: QVQLVESGGGLVRPGGSLRLSCAASGFTFSSNGMHWFRQAPGKGLEWVSSIGSGGTSIYYADSVKGRFTISRDNAKNTLYLQMNSLKSDDTAVYYCSKEVTGATRGQGTQVTVEPKSSDKTHTCPPCPAPEAAGAPSVFLFPPKPKDTLMISRTPEVTCVVVDVSHEDPEVKFNWYVDGVEVHNAKTKPREEQYNSTYRVVSVLTVLHQDWLNGKEYKCKVSNKALPAPIEKTISKAKGQPREPQVCTLPPSRDELTKNQVSLSCAVKGFYPSDIAVEWESNGQPENNYKTTPPVLDSDGSFFLVSKLTVDKSRWQQGNVFSCSVMHEALHNRFTQKSLSLSPG light: DIQMTQSPSSLSASVGDRVTITCRASQGIGNYLAWFQQRPGKAPKSLIYAASSLQSGVPSKFSGSGSGTDFTLTISSLQPADFAIYYCQQYNIYPYTFGPGTRLEIKRTVAAPSVFIFPPSDEQLKSGTASVVCLLNNFYPREAKVQWKVDNALQSGNSQESVTEQDSKDSTYSLSSTLTLSKADYEKHKVYACEVTHQGLSSPVTKSFNRGEC",,,> 100 nM,1.28,11.3,2.21,
VHH219B2 (VHH) VHH: QVQLEESGGGLVQAGGSLRLSCAASGRTFSSYVVGWFRQAPGKEREFVGRISWSGARTYYADSVEGRFTISRDNAKNTVYLQMNSLKPEDTAVYYCAADLKWEVLLSEHYEYWGQGTQVTVSS,,0.237,,,,,0.99
VHH85B2 (VHH) VHH: QVQLVESGGGLVQAGGSLRVSCAASGRIPSLNTMAWYRQAPGKQREFVAFITNGGTTNYVDSVEGRFSISRDNTKNAVDLQMNSLKPEDTGVYYCNVQISQYPYNYWGQGTQVTVSS,1.64,2.99,,,,,2.31
VHH94B2 (VHH) VHH: EVQLVESGGGLVQPGGSLRLSCAASGFTFSSYAMSWVRQAPGKGLEWVSAINSGGDSTSYADSVEGRFTISRDNAKNTLYLQMNSLKPDDTAVYYCAKWSDCSEYGCYDQTTTEGTQVTVSS,3.19,0.19,,,,,3.84
"DGL551 (bispecific antibody, V domains shown, 195B1 x 185B2) V domain 1: QVQLVESGGGLVQAGGSLRLSCAASGRTFGTYAMGWFRQAPGKERDFVARISNSGAFTHYADSVKGRFTISRDNAKNTVYLHMNSLENGDTAAYYCVATRGTNSAYYTRSTMYEYWGQGTQVTVEP V domain 2: QVQLVESGGGLVQAGGSLRLSCAASGRTFSRYRMGWFRQAPGKEREFVAAITKSGATTYDADSVKGRFTISRDNAKNTLYLQMNSLKPEDTAVYYCAASYHSNWWPKNADEYAYWGQGTQVTVEP",,,4.7e-09 M (implied),0.59,10.6,8.29,
VHH185B2 (VHH) VHH: QVQLVESGGGLVQAGGSLRLSCAASGRTFSRYRMGWFRQAPGKEREFVAAITKSGATTYDADSVKGRFTISRDNAKNTLYLQMNSLKPEDTAVYYCAASYHSNWWPKNADEYAYWGQGTQVTVSS,2.71,2.1,,,,,4.18
"DGL426 (bispecific antibody, human IgG1, lambda) heavy 1: not shown heavy 2: QVQLVQSGAEVKKPGASVKVSCKASGYTFIGYYIHWVRQAPGQGLEWMGWINPHSGGTNYAQKFQGRVTMTRDTSISTAYMELSRLRSDDTAIYYCTKEANNWGYAFDIWGQGTMVTVSSASTKGPSVFPLAPSSKSTSGGTAALGCLVKDYFPEPVTVSWNSGALTSGVHTFPAVLQSSGLYSLSSVVTVPSSSLGTQTYICNVNHKPSNTKVDKKVEPKSCDKTHTCPPCPAPEAAGAPSVFLFPPKPKDTLMISRTPEVTCVVVDVSHEDPEVKFNWYVDGVEVHNAKTKPREEQYNSTYRVVSVLTVLHQDWLNGKEYKCKVSNKALPAPIEKTISKAKGQPREPQVCTLPPSRDELTKNQVSLSCAVKGFYPSDIAVEWESNGQPENNYKTTPPVLDSDGSFFLVSKLTVDKSRWQQGNVFSCSVMHEALHNRFTQKSLSLSPG light: not shown",,,2.7e-10 M (implied),1.24,15.9,0.321,
VHH190B2 (VHH) VHH: QVQLQESGPGLVKPSQTLSLTCTVSGGSITTNYYYWSWIRQPPGKGLEWMGAIAYSGSTYYSPSLKSRTSISRDTSKNQFTLQLSSVTPEDTAVYYCASGINFYSNYPTLNEYDYWGQGTQVTVSS,2.25,0.174,,,,,3.78
VHH93B2 (VHH) VHH: QVQLVESGGGLVQPGGSLRLSCAASGFTFEPYDMSWFRQAPGKGPEWVSAIDKGGGAGATYYADSVKGRFTISRDNAKKTLYLQMKSLKPEDTAVYYCAITAGPYSDSTPRVAYRGEGTQVTVSS,,0.151,,,,,1.35
VHH230B2 (VHH) VHH: QVQLVESGGGLVQAGGSLRLSCAASGRTFSSYAMGWFRQAPGKEREFVSAISWSGLSTYYVESVQGRFTISRDNAKNTVYLQMNSLKPEDTAVYYCAASRIYTNYVARSYEYDDWGQGTQVTVSS,2.05,0.308,,,,,
